# Laboratory results reported in the nanobody polyreactivity screen of Harvey et al. (2022).
# Assay: yeast display, Sf9 membrane polyspecificity reagent, FACS + sequencing; frameworks hold sequencing errors
# Method in brief: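 In a synthetic yeast display library (Saccharomyces cerevisiae BJ5465), nanobody expression was induced with galactose for 36–48 hours. FACS gates were set low and high (top ~1%) using anti-HA fluorescence for expression and streptavidin fluorescence for binding of the Sf9 membrane reagent. Each polyreactivity label is drawn from the gate of origin.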
row,Sequence,polyreactivity (PSR sort gate)
1,QVQLVESGGGLVQAGGSLRLSCAAAGIIFISYDMGWYRPAPGKDRELVARINWDGGSTYYADSVKGRFTISRDKAKHTFYLQTNTLKPEDTAVSYCAAGFVGTNYPLQGFSYEYWGPGTQVTVSS,low polyreactivity
2,QVQLVETGGGLVQAGGSLRLSCAASGIIFATYAMGWYRQAPGKEMELVAAISRRGGYTYYADSVKGRFTISRDNANNTVYLQMNSLKPEDSAVYYCAKSNTLASVAHDYWGQGTQVTVTS,high polyreactivity
3,QVQLVESGGGLLQAGGSLRLSCAASGSTFRIYAMGWYRQAPGKERELVAAIRRRGASTYYADSVKGRFTISRDNAKNTVYLQMNSLKQEDTAVYYCAASYLWDRVPGRGIHDYWGQGTQVTVSS,high polyreactivity
4,QVQLVESGGGLVQAGGSLRLSCAASGRTFFWYAMGWYRQAPGKERELVADISSSGGSTYYADSVKGRFTISRDNAKNTVYLQMNSLKPEDTAVYYCAALSPWWRGGYNYWGQGTQVTVSS,high polyreactivity
5,QVQLVESGGGLVQAGGSLRLSCAASGSTLWAYAMGWYRQAPGKERELVASISSGGNTNYADSVKGRFTISRDNAKNTVYLQMNSLKPEDTAVYYCAAVGYLYFWYPYDYWGQGTQLTVSS,low polyreactivity
6,QVQLVESGGGLVQAGGSLRLSCAASGRTFSNYAMGWYRQAPGKERELVAAISQRGGSTYYADSVKGRFTISRDNAKNTVYLQMNSLKPEDTAVYYCNARQTTATVGTGNYWGQGTQVTVSS,high polyreactivity
7,QVQIVESGVGLVQAGGSLRLSCAASGRIVSSKVMGLYRQAAGKERELVAAITSGGSTYYADSVKGRFTISRDNAKNTVYLQMNSLKPEDTAVYYCAASYWVLRYRYDYWGQGTQVTVSS,high polyreactivity
8,QVQLVESGGGLVQAGGSLRLSCAASGSTFGFNAMGWYRQAPGKERELVAAITFSGGTTYYADSVKGRFTISRDNAKNTVYLQMNSLKPEDTAVYYCNADVKRDRVWGGDYWGQGTQVTVSS,low polyreactivity
9,QVQLVESGGALVQAGGSLRLSCAASGIIFYDYAMGWYRPAPGKERELVAAITWTGSSTYYADSVKGRFTISRDNAKITVYRQMNCLKQEDTAVSYCAADYWEYSPYEDLTYDYWGQGTQVTVSS,high polyreactivity
10,QAQLQESGGSLVQAGGGLRLSCAASGYSSVGSVMGWYRQAPSKEREHVASIDQGANTNYADSVKGRFTISRDNAKNNVYLQMTSLKPEDTAVYYCATETTYILNYWGQGTQVTVSS,low polyreactivity
11,QVQLVESGGGLVQAGGSLRLSCAASGRTLLPNAMGWYRQAPGKERELVADISTSDGSTRYADSVKGRFTISRDNAKNTVYLQMNSLKPEDTAVYYCAAGSEYYSSGGVRFSFYYWGQGTQVTVSS,low polyreactivity
12,QVQLVESGGGLVQAGGSLRLSCAASGRIFDSYAMGWYRQAPGKERELVAVISNNDGTTYYADSVKGRFTISRDNAKKTFYLQMNSLKPEDTAVYYCAAEEPLFGYLWYVVTYAGFYDYWGQGTQVTVSS,low polyreactivity
13,QVQLVESGGGLVQAGGSLRLSCAASGRTFTRYVMGWYRQAPAKEREVVAAISSSGGTYYADSVKGRFTISRDNAKNTVYLQMNSLKPEDTAVYYCAVGSKLSRSYGYYYWGQGTQVTVSS,high polyreactivity
14,QVQLVESGGGLVQAGGSLRLSCAASGSILYYYAMGWYRQAPGKERELVAAISSSGGRTYYADSVKGRFTISRDNAKNTVYLQMNSLKPEDTAVYYCAATNRRQPYKDREDYWGQGTQVTVSS,high polyreactivity
15,QVQLIESGGGLVQAGGSLRLSCAASGSTLGLYDMGWYRQAPGKERELVAAISTGSGSTYYADSVKGRFTISRDNAKYTVYLLMISLKPEDTAVYYCNTDAWYSPIWFWVDSWGQGTQVTVSS,low polyreactivity
16,QVLLVESGGGLVQAGGSLRLSCSASGITFEYYAMGWYRQAPGKERELVADIDTGGSTNYADSVKGRFTISRDNAKNTVYLQMNSLKPEDTAVYYCAADWSWWDAEDYHFEYDYWGQGTQVTVSS,low polyreactivity
17,QVQLVESGGGLVHAGGSLRLSCAASGFTFGPYAMGWYRQAPRKERELVAAITGSGGITYYADSVKGRFTISRDNAKNTVYLQKNSLKPEDTAVYYCAAEYPYVYGTYSDSYTEYDYWGQGTQVTVSS,low polyreactivity
18,QVHLVESGGGLVQAGGILRLSCAASGSTFGYYAMGWYRQAPGKERELVAAITWSGDSTYADSVKGRFTISRDNAKNTVYLQMNSLKPEDTAVYYCARRGFLGHWPRPSYDYWGQGTQVTVSS,low polyreactivity
19,QVQLVESGGGLVQAGGSLRLSCAASGLIIYRYGMGWYRQAPGKERELVAAISYSGSSTYYADSVKGRFTISRDNAKNTVYLQMISLKPEDTAVYYCAAQSTRPYPGRYYYWGQGTQVTVSS,high polyreactivity
20,QVQLVESGGGLVQAGGSLRLSCAASGSTFWYYAMGWYRQAPGKERELVAAITSSGSTYYADSVKGRFTISRDNAKNTVYLQMNSLKPEDTAVYYCAAEQWYGYASYDYWGQVTQVTVSS,high polyreactivity
21,QVQLVESGGGLVQAEGSLRLSCAASGNTFERNTMGWYRQATGKERELVAAISWSGGRTYYADSVKGRFTISRDNAKNTVYLQLNSLKPEDTAVYYCAATNYYYGAGYYYWGQGTQVTVSS,high polyreactivity
22,QVQLVESGGGLVQAGGSLRLTCAASGFIFAYYVMGWYRQAPGKERELVAAITSSDGITYYADSVKGRFTISRDNAKNTVYLQMNSLKPEDTAVYYCNADVYPDVGWRESDYWGQGTQVTVSS,low polyreactivity

row,Sequence,polyreactivity (PSR sort gate)
1,QVQLVESGGGLVQAGGSLRLSCAASGSIFFFNAMGWYRQAPGKEREFVAAITSSSGRTYYADSVKGRFTISRDNAKNTVYLQMNSLKPEDTAVYYCAAEGLDEGDYWGQGTQVTVSS,low polyreactivity
2,QVQLVESGGGLVQAGGSLRLSCAASGLTFLDYAMGWYRPAPGKERELVAAITSGGSTNYADSVKGRFTISRDNAKNTVYLQMNSLKPEDTAVYYCATDLEVSAYDYWGQGTQVTVSS,low polyreactivity
3,QVQLVESGGGLVQAGGSLRLSCAASGSIFFYYAMGWYRQAPGKERELVATITSGGSTSYADSVKGRFTISRDNAKNTVYLQMNSLKPEDTAVYYCAARKVTKSTYNYWGQGTQVTVSS,low polyreactivity
4,QVQLEESGGGLVQAGGSLRLICAASGSIFYQYPMGWYRQAPGKERELVAGITWSGGSTYYADSVKGRFTISRDNAKNTVYLQMNSLKPEDTAVYYCAAQYFCYVYSYDYWGQGTQVTVSS,high polyreactivity
5,QVQLVESGGGLLQAGGSLRISCAASGSTFGVYAMGWYIPAPGKERELVAVIRRGGGTDYADSVKGRYTISRDNAKNTVYLQLDSLIPVDTAVYSCAATVVRTGYLTLEMDYWGQGTQVTVSA,low polyreactivity
6,QVQLVESGGGLVQAGGSLRLSCAASGLTFYYYAMGWYRQAPGKERELVATISGSGGNTYYADSVKGRFTISRDNAKNTVFLQMNSLKPEDTAVYYCNARYRWWLYYSRDRVYYWGQGTQVTVSS,high polyreactivity
7,QVQLVESGGGIVQAGGSLRVSCAASGFTFHKYAMGWYRQAPGTERELVAVISQSASSTYYADSVKGRFTISRDNAKNTVYFQMNGLKPEDTAVYYCNAKYYRYNRRNYWGQVTQVTVSS,high polyreactivity
8,QVQLVESGGGLVQAGGSLRLSCAASGRTFFPYVMGWYRQAPGKERELVATITWGGVSTYYADSVKGRFTISRDNAKNTVYLQMNSLKPEDTAVYYCAARYYRWRTIPEYYYWGQGTQVTVSS,high polyreactivity
9,QVQLVESGVGLVQPGGILRLSCAASGIIFTQYAMGWNIQAPGKESELVAAMSGSGGSTYYADSVKGRFTISRDNAKNTVYLQMNSLKPEDTAVFYCAAGGVRGPGVESRMFYLGQGTQVTVSS,high polyreactivity
10,QVQLVESGGGLVQAGGSLRLSCAASGSTFFYNAMGWYRQAPGKERELVAAISKRGDRTYYADSVKGRFTISRDNAKNTVYLQMNSLKPEDTAVYYCAADSYSFSYYIEYDYWGQGTQVTVSS,high polyreactivity
11,QVQLVDSGGGLVQAGGSLRLSCSASGRIFLRYPMGCYRQSPGKERELVAVITWSGGSTNYADSVKGRFTISRDNAKNTVYLQMNSLKPEDTAVYYCAVDNTGRSWPYDYWGQGTQVTVSS,low polyreactivity
12,QVQLVESGGGLVQAGGSLRLSCAASGGIFKSNTMGWYRQAPGKERELFAAITSGGSTNYADSVKGRFTISRDNAKNTVYLQMNSLKPEDTAVYYCNTDDRYYTPSRAVFQYDYWGQGTQVTVSS,low polyreactivity
13,QVQLVESGGGLVQAGGSLRLSCAASGSILYYNAMGWYRQAPGKERELVAAITSGGSTYADSVKGRFTISRDNAKNTFYLQMNCLKPEDTAVYYCAADLYWYLSDYGTTLEHDYWGQGTQVTVSS,low polyreactivity
14,QVQLVESGGGLVQAGGSLRLSCAASGRNFDGYAMGWYRQAPGKERQLVAAISGGGNTKYADSVKGRFTISRDNAKNTVYLKMISLKPEDTAVYYCAARGYYYGYRFDSWGQGTQVTVSS,high polyreactivity
15,QVQLVESGGGLVQAGGSLRLSCAASGFIFGVYAMGWYRQAPGKERELVAAISRSGGSTYYADSVKGRFTISRDNAKNTVYLQMNSLKPEDTAVYYCATQVSWYGKGYYYWGQGTQVTVSS,high polyreactivity
16,QVQLVESGGGLVQAGGSLRLSCAASGRTFNKYAMGWYRQAPGKERELVAAIRDGSGGRTNYADSVKGRFTISRDNAKNTVYLQMNSLKPEDTAVYYCNADDSKYPYYTDDYWGQGTQVTVSS,low polyreactivity
17,QVQLVESGGGLVQAGGSLRLSCAASGLTFNVYAMGWYRQAPGKERELVASITKRGGSTYYADSVKGRFTISRDNAKNTVYLQMNSLKPEDTAVYYCAADGLTGSKYRATGYYWGQGTQVTVSS,high polyreactivity
18,QVQLVESGGGLVQAGGSLRLSCAASGGTFSYYAMGWYRQAPGKERELVAAITYSGDRTYYADSVKGRFTISRDNAKNTVYLQMNSLKPEDTAVYYCNAVRGSWYGYYYWGQGTQVTVSS,high polyreactivity
19,QVQLVESGGGLVQAGGSLRLSCAASGSTFYPYAMGWYRQAPGKERELVAAISISGGITYYADSVKGRFTISRDNAKNTVYLQMNSLKPEDTAVYYCAAEYLAVSGYWYDYWGQGTQVTVSS,high polyreactivity
20,QVQLVESRGGLVQAGGSLPLSCAASGFIFTSYAMGWYRQAHGKEREFVAAISGSGGSTYYADSVKGRFTISRDNAKNTVYLQMNSLKPEDTAVYYCAAESWVGYYLYWYDYWGQGTQVTVSS,high polyreactivity
21,QVQLVESGGGLVQAGGSLRLSCAASGNTFVRNAMGWYRQAPGKERELVASISQSGGTTYYADSVKGRFTISRDNAKNTVYLQMNSLKPEDTAVYYCNAARYRRSPGHTKYNYWGQGTQVTVSS,high polyreactivity
